Experimental findings from patent US11001846B2, “Aptamers, nucleic acid molecules, polynucleotides, synthetic antibodies compositions for detecting PRRS viruses and treating PRRS virus infection” (AEROVIRUS TECHNOLOGIES INC., priority 2015, dated 2021) are described below.

“Also recorded” adds a separate entry of the source.

In one data set the test system is LHVA-93-3 PRRS virus. In words: In-vivo lung virus titer, LHVA-93-3, comparison with control oligonucleotide and Tilmicosin (Example 4). The arrangement: species or system swine. How it is done:
Swine were inoculated intranasally with sub-lethal infectious fluid containing 40TCID50/ml PRRS virus (LHVA-93-3) with or without 2.5 nmole A505 aptamer for different time intervals. Pig body weight was monitored for 2 weeks. Viral titer in the lungs was determined by the CPE titration method (OIE Terrestrial Manual—May 2015, Chapter 2.8.7—Porcine Reproductive and Respiratory Syndrome, section 1.1.3). Other pigs were sacrificed 6 days following viral inoculation and lungs were removed and homogenized in PBS 0.1% BSA (10% w/v). Following homogenization, samples were centrifuged to remove debris and stored at −80° C.
The cells/viruses were incubated for 2-5 days and observe daily for a CPE. At day 2, seed macrophages in new microtitre plates. Fifty (50) μl of the supernatants were transferred from the plates of the first passage to the corresponding wells of the freshly seeded plates (second passage). The wells were incubated for 2-5 days and observed daily for a CPE. The results of the CPE assays were presented as log TCID50.
Tilmicosin (Pulmotil®) was purchased from Eli Lilly (Elanco®), Canada.
Were implemented as described hereinabove. A dose of 15 ug/Kg of A505 was used.
The ability of the A505 aptamer to inhibit PRRSV infection was also compared to that of one of the currently available “anti-PRRSV” drugs, the antibiotic Tilmicosin. To this end, both A505 and Tilmicosin were administered once, together with the virus, using the intra-nasal route. As is shown in Table 2 below, a dose of 60 mg/pig of Tilmicosin (1 mg/kg body weight) reduced virus titer by 0.42 log TCID50, representing a 2.6-fold reduction in virus burden. This is in comparison to a reduction by 1.21 log TCID50 affected by A505 in this particular experiment (over 10 fold reduction in virus burden).

In data set [1] the test system is M-S-S-GP5 peptidic complex. Kind of data set: ELISA reverse screening: binding to M-S-S-GP5 peptidic complex, type 1. The arrangement: species or system type 1 PRRSV (Lelystad). The conditions noted are these: type 1 PRRSV complex. As for the experimental part: (§1) ssDNA aptamers were denatured at 80° C. for 10 min and then cooled on ice for 10 min. Aptamers (30 nmole) were mixed with 25 μg of M-S-S-GP5 peptidic complex (further described in Example 6 below) in 500 μl selection buffer (50 mM Tris-HCl; pH 7.4, 5 mM KCl, 100 mM NaCl, 1 mM MgCl2 tRNA, 0.2% BSA) at 37° C. for 30 min. Aptamer-peptide complex was purified by adding the 25 μl Ni-NTA superflow and amplified by PCR using primers directed to the common T3 sequences in the aptamer library, and 3′-primer (i.e. -[…]-3′). SELEX was repeated 3 times, following which amplified nucleotides were transformed into E. coli. PCR conditions for SELEX included 5 min 95° C./1 min 95° C./1 min 55° C./1 min 72° C./10 min 72° C. and 100 pmole of each primer.
Selected ssDNA molecules from each individual clone were biotinylated using the B-T3 which is same sequence with 5′ primer (T3 primer), and Klenow fragment (2 unit/ml). To prepare single stranded biotin conjugated CoocSeq5 aptamer for the reverse screening, T3 Primer was Biotin labelled. A 96-well flat bottom ELISA plate was prepared by coating each well with 100 μl of streptavidin (100 μg/ml) diluted in 0.1 M NaHCO3 following by a 37° C. overnight incubation. Following several washings with PBS, wells were blocked with 200 μl of PBS containing 1% BSA for 2 hours at room temperature and subsequent washing three times with PBS-T (10 mM PBS containing 0.05% (v/v) Tween-20). Thereafter, 100 μl of 2.5 pmole/100 μl biotinylated-ssDNA were added to the wells and incubated at 37° C. for 2 hours followed by washing four times with PBS-T. T3 primer was used as negative control. Following washing, 100 μl of fluid containing 2 μg histidine labelled M-S-S-GP5 peptidic complex were added to the indicated wells and incubated at 37° C. for 2 hours. The wells were then washed for 4 times with PBS-T. The reverse screening assay was completed by ELISA. […]
(In an ELISA, binding on a coated surface is turned into a signal by an enzyme label.)

The next data set has as its system type 1 (Lelystad) PRRSV. Particulars: after MTT screening of 10 candidates.
A further data set relates to type 2 PRRSV. Particulars: after MTT screening of 10 candidates.
Data set [2] has as its system M-S-S-GP5 peptidic complex. In words: ELISA reverse screening: binding to M-S-S-GP5 peptidic complex, type 2. The conditions noted are these: type 2 PRRSV complex. How it is done: as §1
Selected ssDNA molecules from each individual clone were biotinylated using the B-T3 which is same sequence with 5′ primer (T3 primer), and Klenow fragment (2 unit/ml). To prepare single stranded biotin conjugated CoocSeq5 aptamer for the reverse screening, T3 Primer was Biotin labelled. A 96-well flat bottom ELISA plate was prepared by coating each well with 100 μl of streptavidin (100 μg/ml) diluted in 0.1 M NaHCO3 following by a 37° C. overnight incubation. Following several washings with PBS, wells were blocked with 200 μl of PBS containing 1% BSA for 2 hours at room temperature and subsequent washing three times with PBS-T (10 mM PBS containing 0.05% (v/v) Tween-20). […]
High binding capacity ELISA plates (Immunoplate, Nunc) were coated with 100 μl allantoic fluid containing 500 TCID50 of various PRRS virus strains diluted in phosphate buffered saline (PBS) by incubating at 4° C. overnight. […] Following this incubation period, plates were washed five times in PBS-T and bound antibodies were detected using horseradish peroxidase labelled goat anti-mouse IgG conjugates (HRP). […] Reaction was terminated with 50 μl of 2M H2SO4, plates were read with a multichannel spectrophotometer at 570 nm.

Text for type 1 (Lelystad) PRRSV: (§2) Using various tetrazolium (MTT) colorimetric assay procedures^[xxxvi], these aptamers have been “screened” to identify the ones having the highest and fastest binding capabilities for detection and therapeutics purposes for both types of PRRSV. It should be pointed out that the aptamer having the quickest binding efficiency but not necessarily the highest binding strength is the most suitable one for the biosensor.
Text for type 2 PRRSV: as §2

Consider `CC[C@H]1OC(=O)C[C@@H](O)[C@H](C)[C@@H](O[C@@H]2O[C@H](C)[C@@H](O)[C@H](N(C)C)[C@H]2O)[C@@H](CCN2C[C@H](C)C[C@H](C)C2)C[C@@H](C)C(=O)/C=C/C(C)=C/[C@@H]1CO[C@@H]1O[C@H](C)[C@@H](O)[C@@H](OC)[C@H]1OC` [Tilmicosin, reference compound], for which the “Reduction Factor” value with LHVA-93-3 PRRS virus (Table 2, administered once with the virus, intra-nasal) is reported as 2.6. Further, the “Δ (log TCID50), reduction of virus titer” value in the data set with LHVA-93-3 PRRS virus (administered once together with the virus, intra-nasal, Tilmicosin 60 mg/pig (1 mg/kg), A505 15 ug/Kg) is recorded as 0.42 log TCID50. Moreover, the “reduction in virus burden” value in the data set with LHVA-93-3 PRRS virus (administered once with the virus, intra-nasal) came to 2.6 fold.

B1: PEU-842: ssDNA aptamer binding type 1 (Lelystad) PRRSV M-S-S-GP5 complex (nucleic acid)
DNA: GGGCGACCCTGAAGAGGACCAGAAGCACGGACCACACACAGCGTATCGAAACGGTGAAAGCCGTAGGTTGCCC
modifications: DNA, backbone and methylation of C not given here
With B1, the “binding to the M-S-S-GP5 complex/heterodimer” value in data set [1] was “binding capacity to the M-S-S-GP5 complex; also recorded: found to bind the M-S-S-GP5 heterodimer”. In the data set with type 1 (Lelystad) PRRSV, the “binding capabilities from biosensing and therapeutic perspectives” value (“binding capabilities” for short) is listed as “good binding capabilities”.

B2: PEU-962: ssDNA aptamer binding type 1 (Lelystad) PRRSV M-S-S-GP5 complex (nucleic acid)
DNA: GGGCGACCCTGAAGAGGATAGACAATAGCACACCACGCCCCTGCCACGAAACGGTGAAAGCCGTAGGTTGCCC
modifications: DNA, backbone and methylation of C not given here
Consider B2, for which the “binding to the M-S-S-GP5 complex/heterodimer” value in data set [1] is on record as “binding capacity to the M-S-S-GP5 complex; also recorded: found to bind the M-S-S-GP5 heterodimer”. Besides, the “binding capabilities” value in the data set on type 1 (Lelystad) PRRSV is on record as “good binding capabilities”.

B3: PEU-499: ssDNA aptamer binding type 1 (Lelystad) PRRSV M-S-S-GP5 complex (nucleic acid)
DNA: GGGCGACCCTGAAGAGTACACACGGGACACACACACACTCACTAGACGAAACGGTGAAAGCCGTAGGTTGCCC
modifications: DNA, backbone and methylation of C not given here
With B3, the “binding to the M-S-S-GP5 complex/heterodimer” value in data set [1] is recorded as “binding capacity to the M-S-S-GP5 complex; also recorded: found to bind the M-S-S-GP5 heterodimer”. Besides, the “binding capabilities” value with type 1 (Lelystad) PRRSV is recorded as “good binding capabilities”.

B4: PEU-424: ssDNA aptamer binding type 1 (Lelystad) PRRSV M-S-S-GP5 complex (nucleic acid)
DNA: GGGCGACCCTGAAGAGGATGTTGATAGAGCGCCGACCACACACGCACGAAACGGTGAAAGCCGTAGGTTGCCC
modifications: DNA, backbone and methylation of C not given here
With B4, the “binding to the M-S-S-GP5 complex/heterodimer” value in data set [1] was “binding capacity to the M-S-S-GP5 complex; also recorded: found to bind the M-S-S-GP5 heterodimer”. In the data set on type 1 (Lelystad) PRRSV, the “binding capabilities” value is recorded as “good binding capabilities”.

B5: A507: ssDNA aptamer binding type 2 PRRSV M-S-S-GP5 complex (nucleic acid)
DNA: GGGCGACCCTGAAGAGGTTTGCATATTATAGTTATAGGAGGTGTGTAATGGACGAAACGGTGAAAGCCGTAGGTTGCCC
modifications: DNA, backbone and methylation of C not given here
Turning to B5, the “binding capabilities” value with type 2 PRRSV was “highest binding capabilities”. Moreover, in data set [2], the “binding to the M-S-S-GP5 complex/heterodimer” value is given as “binding capacity to the M-S-S-GP5 complex; also recorded: found to bind the M-S-S-GP5 heterodimer”.

B6: A501: ssDNA candidate aptamer for type 2 PRRSV M-S-S-GP5 complex; used as control irrelevant nucleotide in Example 4 (nucleic acid)
DNA: GGGCGACCCTGAAGAGAAAGGTGAGTTTATTGCGGGGGTTATTTATTGCTTCGAAACGGTGAAAGCCGTAGGTTGCCC
modifications: DNA, backbone and methylation of C not given here
Regarding B6, the “change in lung virus titer” value with LHVA-93-3 PRRS virus (LHVA-93-3, FIG. 13b) is listed as “insignificant change in the viral titer”.

B7: PEU-852: ssDNA aptamer binding type 1 (Lelystad) PRRSV M-S-S-GP5 complex (nucleic acid)
DNA: GGGCGACCCTGAAGAGGACACTGCACGTACACAACGAGGATGAACACGAAACGGTGAAAGCCGTAGGTTGCCC
modifications: DNA, backbone and methylation of C not given here
B7: in data set [1], the “binding to the M-S-S-GP5 complex/heterodimer” value is given as “binding capacity to the M-S-S-GP5 complex; also recorded: found to bind the M-S-S-GP5 heterodimer”. Also, in the data set with type 1 (Lelystad) PRRSV, the “binding capabilities” value is recorded as “good binding capabilities”.
